Here are results for 29 molecules from US20260242478A1 (published 2026).

Assay [1] deals with PSMA Fab (anti-PSMA Fab; 006 PSMA Fab). Nature of the assay: phage binding ELISA; clonal phage supernatant on biotinylated PSMA Fab captured on neutravidin plate; anti-M13 HRP detection. (In general: An ELISA detects its analyte on a solid surface through an enzyme-linked reagent.)
Description: (§1) Clonal phage were harvested as crude supernatants and screened via standard ELISAs. […] Prior to the addition of clonal phage. wells were incubated with blocking buffer and PSMA antigen or blocking buffer alone. Without washing or aspirating, clonal phage supernatants were then added to the wells and incubated for a short time. Wells were then washed followed by detection of bound phage using a horse radish conjugated anti-M13 antibody.
The target is the same in assay [2]. Nature of the assay: phage binding ELISA on captured PSMA Fab; wells first incubated with PSMA antigen as competitor; anti-M13 HRP detection.
Description: as §1
For assay [3], the target named is T1, 006 PSMA Fab.
T1 construct: also called Anti-PSMA Fab
Nature of the assay: clonal phage ELISA on biotinylated PSMA Fab captured on neutravidin plates, anti-M13 HRP detection.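 Also: crude clonal phage supernatants tested, before phage were added, wells were pretreated with PSMA antigen in blocking buffer or with blocking buffer only.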
Description: as §1

In assay [4] the target is T1, 006 PSMA Fab. Put plainly: clonal phage ELISA on captured PSMA Fab pre-incubated with PSMA antigen as competitor, anti-M13 HRP detection.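 Also: crude clonal phage supernatants tested by ELISA, wells first treated with blocking buffer plus PSMA antigen, bound phage read out via HRP-linked anti-M13 antibody.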
Description: as §1
Assay [5] deals with T2, 006 PSMA Fab (biotinylated (site not stated)).
T2 construct: Biotinylated PSMA Fab captured on neutravidin coated plates in the panning ELISA; also called Anti-PSMA Fab
Nature of the assay: clonal phage ELISA on captured PSMA Fab, wells pre-incubated with PSMA antigen as competitor.

In assay [6] the target is T2, 006 PSMA Fab. Put plainly: clonal phage ELISA on biotinylated PSMA Fab captured on neutravidin plates, anti-M13-HRP detection.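 Also: crude clonal phage supernatants added to wells preincubated with PSMA antigen or with blocking buffer only (no wash between), briefly incubated, then washed before detecting bound phage.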
Description: as §1

Where no end group is shown, it is not given here.

As to VSNWCKPAWMCGTT [Phage-2731 (Peptide-180 library clone)], the “Phage binding ELISA signal, Anti-PSMA Fab” value in assay [1] came out at 0.733. In assay [2], the “Phage binding ELISA signal, Anti-PSMA Fab with PSMA antigen” value was determined as 0.079.
As to QMPLCIPQWMCTNN [Phage-2734 (Peptide-180 library clone)], the “Phage binding ELISA signal, Anti-PSMA Fab” value in assay [1] turned out to be 0.723. Moreover, in assay [2], the “Phage binding ELISA signal, Anti-PSMA Fab with PSMA antigen” value is 0.0562.
Take TNNWCIPSWMCDIR [Phage-2737 (Peptide-180 library clone)]: the “Phage binding ELISA signal, Anti-PSMA Fab” value in assay [1] is 0.718. Further, in assay [2], the “Phage binding ELISA signal, Anti-PSMA Fab with PSMA antigen” value came to 0.0629.

B1: Phage-2835 (peptide)
peptide: VAKLCTPAWMCSAM
modifications: cysteine pairing not given here; also: fused to pIII of bacteriophage, linker and pIII sequence not given here
notes: Clonal phage of the Peptide-180 optimization library, tested as crude phage supernatant; not shown: fused to pIII of the bacteriophage
B1: the “Phage binding ELISA signal, Anti-PSMA Fab” value in assay [3] amounted to 0.431. Also, the “Phage binding ELISA signal, Anti-PSMA Fab with PSMA antigen” value in assay [4] was determined as 0.0638.

B2: Phage-2758 (peptide)
peptide: MVHWCTPSWMCSAL
notes: Clone of the Peptide-180 optimisation library, tested as clonal phage supernatant (peptide fused to pIII of the bacteriophage); Row read against Peptide-180: MVHWCTPSWMCSAL
In the case of B2, in assay [5], the “phage binding ELISA signal in presence of PSMA antigen” value is 0.1. The “phage binding ELISA signal” value in assay [6] was 0.677.

B3: Phage-2766 (peptide)
peptide: VEKWCTPAWMCSTS
notes: Clone of the Peptide-180 optimisation library, tested as clonal phage supernatant (peptide fused to pIII of the bacteriophage)
As to B3, the “phage binding ELISA signal in presence of PSMA antigen” value in assay [5] was 0.065. Also, in assay [6], the “phage binding ELISA signal” value was 0.657.
Turning to EMKWCKPEWMCPWM [Phage-2730 (Peptide-180 library clone)], the “Phage binding ELISA signal, Anti-PSMA Fab” value in assay [1] is 0.733. Also, in assay [2], the “Phage binding ELISA signal, Anti-PSMA Fab with PSMA antigen” value came to 0.0688.

B4: Phage-2763 (peptide)
peptide: FEKWCTPTWMCWPY
notes: as for B3
For B4, the “phage binding ELISA signal in presence of PSMA antigen” value in assay [5] came to 0.0829. Besides, the “phage binding ELISA signal” value in assay [6] came out at 0.661.
Regarding HGKLCTPSWMCNGF [Phage-2735 (Peptide-180 library clone)], in assay [1], the “Phage binding ELISA signal, Anti-PSMA Fab” value is 0.721. The “Phage binding ELISA signal, Anti-PSMA Fab with PSMA antigen” value in assay [2] was found to be 0.0619.

B5: Phage-2762 (peptide)
peptide: WINWCTPQWMCADL
modifications: cysteine pairing not given here; also: fused to pIII, displayed on bacteriophage
notes: as for B3
B5: in assay [5], the “phage binding ELISA signal in presence of PSMA antigen” value was 0.13. Further, in assay [6], the “phage binding ELISA signal” value came out at 0.662.
LYNRCTPAWMCTGF [Phage-2729 (Peptide-180 library clone)]: the “Phage binding ELISA signal, Anti-PSMA Fab” value in assay [1] was determined as 0.738. Besides, the “Phage binding ELISA signal, Anti-PSMA Fab with PSMA antigen” value in assay [2] came to 0.0657.

B6: Phage-2738 (Peptide-180 library clone) (peptide)
peptide: WEKLCRPAWMCAAY
modifications: cysteine pairing not given here; also: fused to pIII, displayed on bacteriophage
Consider B6, for which the “Phage binding ELISA signal, Anti-PSMA Fab” value in assay [1] turned out to be 0.715. The “Phage binding ELISA signal, Anti-PSMA Fab with PSMA antigen” value in assay [2] was 0.0754.

B7: Phage-2761 (peptide)
peptide: PWKWCTPVWMCQGV
notes: as for B3
For the molecule B7, the “phage binding ELISA signal in presence of PSMA antigen” value in assay [5] was 0.0937. In assay [6], the “phage binding ELISA signal” value was 0.669.
VNPSCTPSWMCLGL [Phage-2728 (Peptide-180 library clone)]: the “Phage binding ELISA signal, Anti-PSMA Fab” value in assay [1] was determined as 0.739. In addition, in assay [2], the “Phage binding ELISA signal, Anti-PSMA Fab with PSMA antigen” value came to 0.0793.
In the case of WQKWCTPMWMCEAT [Phage-2727 (Peptide-180 library clone)], the “Phage binding ELISA signal, Anti-PSMA Fab” value in assay [1] came out at 0.744. In assay [2], the “Phage binding ELISA signal, Anti-PSMA Fab with PSMA antigen” value was 0.0785.

B8: Phage-2769 (peptide)
peptide: SYKWCTPDWMCVAV
notes: as for B3
With B8, in assay [5], the “phage binding ELISA signal in presence of PSMA antigen” value was determined as 0.0709. The “phage binding ELISA signal” value in assay [6] amounted to 0.651.

B9: Phage-2767 (peptide)
peptide: DVTWCIPPWMCMYN
notes: as for B3
B9: the “phage binding ELISA signal in presence of PSMA antigen” value in assay [5] was found to be 0.0814. Moreover, the “phage binding ELISA signal” value in assay [6] came to 0.655.

B10: Phage-2764 (peptide)
peptide: ENHWCRPMWMCETI
notes: as for B3
With B10, the “phage binding ELISA signal in presence of PSMA antigen” value in assay [5] was 0.0683. The “phage binding ELISA signal” value in assay [6] was 0.66.
Consider DIKWCTPSWMCPAK [Phage-2733 (Peptide-180 library clone)], for which, in assay [1], the “Phage binding ELISA signal, Anti-PSMA Fab” value worked out at 0.729. In addition, in assay [2], the “Phage binding ELISA signal, Anti-PSMA Fab with PSMA antigen” value turned out to be 0.0862.

B11: Phage-2757 (peptide)
peptide: GEIRCSPAWMCDGF
notes: as for B3
In the case of B11, in assay [5], the “phage binding ELISA signal in presence of PSMA antigen” value was found to be 0.104. Also, the “phage binding ELISA signal” value in assay [6] was found to be 0.682.
As to WEKWCTPPWMCHDM [Phage-2732 (Peptide-180 library clone)], the “Phage binding ELISA signal, Anti-PSMA Fab” value in assay [1] turned out to be 0.733. The “Phage binding ELISA signal, Anti-PSMA Fab with PSMA antigen” value in assay [2] amounted to 0.0669.

B12: Phage-2756 (peptide)
peptide: AHNWCTPAWMCMWD
modifications: cysteine pairing not given here; also: fused to pIII, displayed on bacteriophage
notes: as for B3
On to B12, for which, in assay [5], the “phage binding ELISA signal in presence of PSMA antigen” value came out at 0.0753. In assay [6], the “phage binding ELISA signal” value turned out to be 0.682.
IVKWCTPAWMCDQQ [Phage-2736 (Peptide-180 library clone)]: the “Phage binding ELISA signal, Anti-PSMA Fab” value in assay [1] stood at 0.72. Besides, the “Phage binding ELISA signal, Anti-PSMA Fab with PSMA antigen” value in assay [2] was determined as 0.0809.

B13: Phage-2768 (peptide)
peptide: AENWCTPRWMCEGI
notes: as for B3
With B13, in assay [5], the “phage binding ELISA signal in presence of PSMA antigen” value was found to be 0.201. For the same molecule, in assay [6], the “phage binding ELISA signal” value was 0.655.
As for FENWCTPYWMCSGM [Phage-2739 (Peptide-180 library clone)], the “Phage binding ELISA signal, Anti-PSMA Fab” value in assay [1] worked out at 0.712. The “Phage binding ELISA signal, Anti-PSMA Fab with PSMA antigen” value in assay [2] came out at 0.0884.

B14: Phage-2759 (peptide)
peptide: MQKMCIPTWMCDGL
notes: as for B3
Regarding B14, the “phage binding ELISA signal in presence of PSMA antigen” value in assay [5] was determined as 0.0817. Also, the “phage binding ELISA signal” value in assay [6] was determined as 0.673.

B15: Phage-2770 (peptide)
peptide: QIKWCIPMWMCEGE
notes: as for B3
B15: the “phage binding ELISA signal in presence of PSMA antigen” value in assay [5] was 0.0554. Also, the “phage binding ELISA signal” value in assay [6] came to 0.651.

B16: Phage-2760 (peptide)
peptide: PVKMCTPAWMCSER
notes: as for B3
Turning to B16, the “phage binding ELISA signal in presence of PSMA antigen” value in assay [5] stood at 0.0866. Further, the “phage binding ELISA signal” value in assay [6] was 0.67.

B17: Phage-2765 (peptide)
peptide: HAIWCIPEWMCAFN
modifications: cysteine pairing not given here; also: fused to pIII, displayed on bacteriophage
notes: as for B3
B17: the “phage binding ELISA signal in presence of PSMA antigen” value in assay [5] was determined as 0.124. In assay [6], the “phage binding ELISA signal” value turned out to be 0.658.
